The results in this text go back to publication PMC9129911, “Electron Flow From the Inner Membrane Towards the Cell Exterior in Geobacter sulfurreducens: Biochemical Characterization of Cytochrome CbcL” (Frontiers in Microbiology, 2022).

What is called Kd is the equilibrium constant for the complex coming apart.

For the assay, the target named is T1, triheme cytochrome PpcA from Geobacter sulfurreducens (Geobacter sulfurreducens, three heme groups).
T1 chain: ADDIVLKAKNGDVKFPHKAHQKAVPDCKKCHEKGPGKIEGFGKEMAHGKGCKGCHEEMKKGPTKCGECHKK
Nature of the assay: NMR titration; 1D 1H NMR chemical shift perturbation; CbcL (800 uM stock) added to 50 uM PpcA, both oxidized, 10 mM sodium phosphate pH 8, in 2H2O, 25°C; shift of PpcA heme methyl 18^1CH3^I fitted to a one binding site model under fast exchange. As to conditions: both partners purified.

B1: CbcL periplasmic domain (c- and b-type cytochrome for low potential) from Geobacter sulfurreducens (domain or fragment)
chain: IDPATCLGCHSNKISAAAFSASVHGKNACTSCHVEITDLTKHMKGEVKVEKVRCERCHKKENAEHYSSVHAQKDVRCADCHTDIHTHSYWNKDKRKVVAKCIQCHDKEAGYRNSIHGKGVAAGNMDSAACNDCHNLHDIKPLGDPKSKENREFHTKVCLKCHADEKMMERNNVFTVAVKTYMDSYHGKNYRLGFPEKVAGCADCHTAHGVLPAKDPNSSVNPQNLVATCAKCHPKATPLFTKFYSHGELG
modifications: nine c-type heme groups
As to B1, the Kd turned out to be 57 ± 9 µM.
